Laboratory results taken from patent US20130109619A1 (UNITED STATES OF AMERICA AS REPRESENTED BY THE SECRETARY …, published 2013).
Non-standard residues stand in square brackets, D forms with d. Fluo = fluorescein on the Cys side-chain sulfur; Nle = CCCC[C@H](N)C(=O)O

Target: recombinant Epstein Barr virus (EBV) IL10 (Epstein Barr virus, UniProt P03180 24-170)
Test: concentration-dependent changes in fluorescence intensity of the environment-sensitive fluorescein label on the peptide

recombinant Epstein Barr virus (EBV) IL10, sequence (P03180 24-170 limits assumed): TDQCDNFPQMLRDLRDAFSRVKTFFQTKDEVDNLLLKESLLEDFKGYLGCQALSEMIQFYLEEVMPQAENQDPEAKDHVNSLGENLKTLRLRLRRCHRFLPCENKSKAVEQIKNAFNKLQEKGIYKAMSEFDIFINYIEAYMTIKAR

B1: IL10-HF-6 (peptide)
peptide: Ac-C(Fluo)YKA[Nle]SEFDIFINYIEAY[Nle]T[Nle]KIRN-NH2
notes: also called fluorescent derivative of helix F of IL10; helix F analog
Kd: 50 nM
